The results in this text go back to the RNAGym collection of RNA variant scans (doi:10.7554/elife.80360).

The chains are these.
B1: CPEB3 Ribozyme (parent)
chain: GGGGGCCACAGCAGAAGCGUUCACGUCGCGGCCCCUGUCAGAUUCUGGUGAAUCUGCGAAUUCUGCUGU

Variants of B1 are the subject of the data set. Put plainly: self-cleavage, relative activity (ratio to wild type); higher = more cleavage; co-transcriptional.
With GGGGGCCACAGCAGAAGCGUUCACGUCGCGGCCCCUGUCAGAUUCUGGUGAAUCUUCGAAUUCUGCUCU [G56U G68C], the self-cleavage is 0.963.
On to GGGGGCCACAGCAGAAGCGUUCACGUCGCGGCCCCUGUCAGAUUCUGGUGAAUCUUCGAAUUCUGCUAU [G56U G68A], for which the self-cleavage stood at 1.05.
As to GGGGGCCACAGCAGAAGCGUUCACGUCGCGGCCCCUGUCAGAUUCUGGUGAAUCUUCGAAUUCUGCUGG [G56U U69G], the self-cleavage came to 1.02.
For the variant GGGGGCCACAGCAGAAGCGUUCACGUCGCGGCCCCUGUCAGAUUCUGGUGAAUCUCCGAAUUCUGCUCU [G56C G68C], the self-cleavage was determined as 0.907.
As to GGGGGCCACAGCAGAAGCGUUCACGUCGCGGCCCCUGUCAGAUUCUGGUGAAUCGGCGAAAUCUGCUGU [U55G U61A], the self-cleavage was found to be 0.497.
The value for GGGGGCCACAGCAGAAGCGUUCACGUCGCGGCCCCUGUCAGAUUCUGGUGAAUCUCCGAAUGCUGCUGU [G56C U62G] was 0.59; that for GGGGGCCACAGCAGAAGCGUUCACGUCGCGGCCCCUGUCAGAUUCUGGUGAAUCUGGGAAUUCUGCUUU [C57G G68U] was 0.365; that for GGGGGCCACAGCAGAAGCGUUCACGUCGCGGCCCCUGUCAGAUUCUGGUGAAUCUGAGCAUUCUGCUGU [C57A A59C] was 0.335.
The value for GGGGGCCACAGCAGAAGCGUUCACGUCGCGGCCCCUGUCAGAUUCUGGUGAAUCUCCGGAUUCUGCUGU [G56C A59G] was 0.705; that for GGGGGCCACAGCAGAAGCGUUCACGUCGCGGCCCCUGUCAGAUUCUGGUGAAUCUCCGCAUUCUGCUGU [G56C A59C] was 0.403; that for GGGGGCCACAGCAGAAGCGUUCACGUCGCGGCCCCUGUCAGAUUCUGGUGAAUCUGAGAAUUCUGCUCU [C57A G68C] was 0.5.
For the variant GGGGGCCACAGCAGAAGCGUUCACGUCGCGGCCCCUGUCAGAUUCUGGUGAAUCUUCGAAUUCAGCUGU [G56U U64A], the self-cleavage was found to be 0.612.
The value for GGGGGCCACAGCAGAAGCGUUCACGUCGCGGCCCCUGUCAGAUUCUGGUGAAUCUUCGAAUUCGGCUGU [G56U U64G] was 0.753; that for GGGGGCCACAGCAGAAGCGUUCACGUCGCGGCCCCUGUCAGAUUCUGGUGAAUCUACGAAUUAUGCUGU [G56A C63A] was 0.648.
As for GGGGGCCACAGCAGAAGCGUUCACGUCGCGGCCCCUGUCAGAUUCUGGUGAAUCUCCCAAUUCUGCUGU [G56C G58C], the self-cleavage was 0.907.
Turning to GGGGGCCACAGCAGAAGCGUUCACGUCGCGGCCCCUGUCAGAUUCUGGUGAAUCUCCAAAUUCUGCUGU [G56C G58A], the self-cleavage amounted to 0.76.
Turning to GGGGGCCACAGCAGAAGCGUUCACGUCGCGGCCCCUGUCAGAUUCUGGUGAAUCUCCUAAUUCUGCUGU [G56C G58U], the self-cleavage is 0.917.
In the case of GGGGGCCACAGCAGAAGCGUUCACGUCGCGGCCCCUGUCAGAUUCUGGUGAAUCUGACAAUUCUGCUGU [C57A G58C], the self-cleavage stood at 0.397.
The value for GGGGGCCACAGCAGAAGCGUUCACGUCGCGGCCCCUGUCAGAUUCUGGUGAAUCUGAGAGUUCUGCUGU [C57A A60G] was 0.347.
With GGGGGCCACAGCAGAAGCGUUCACGUCGCGGCCCCUGUCAGAUUCUGGUGAAUCGGCGAAUUCUGCUGC [U55G U69C], the self-cleavage turned out to be 0.962.
GGGGGCCACAGCAGAAGCGUUCACGUCGCGGCCCCUGUCAGAUUCUGGUGAAUCUACGAAUUCUGCUUU [G56A G68U]: the self-cleavage was 1.04.
The value for GGGGGCCACAGCAGAAGCGUUCACGUCGCGGCCCCUGUCAGAUUCUGGUGAAUCUACGAAUUCUGCUCU [G56A G68C] was 0.992.
Regarding GGGGGCCACAGCAGAAGCGUUCACGUCGCGGCCCCUGUCAGAUUCUGGUGAAUCUACGAAUUCUGAUGU [G56A C66A], the self-cleavage was 0.702.
On to GGGGGCCACAGCAGAAGCGUUCACGUCGCGGCCCCUGUCAGAUUCUGGUGAAUCUGAGAAUACUGCUGU [C57A U62A], for which the self-cleavage was determined as 0.32.
For the variant GGGGGCCACAGCAGAAGCGUUCACGUCGCGGCCCCUGUCAGAUUCUGGUGAAUCUACAAAUUCUGCUGU [G56A G58A], the self-cleavage came to 0.905.
For GGGGGCCACAGCAGAAGCGUUCACGUCGCGGCCCCUGUCAGAUUCUGGUGAAUCUACCAAUUCUGCUGU [G56A G58C], the self-cleavage came out at 0.971.
The value for GGGGGCCACAGCAGAAGCGUUCACGUCGCGGCCCCUGUCAGAUUCUGGUGAAUCUCCGAAUUCUACUGU [G56C G65A] was 0.459; that for GGGGGCCACAGCAGAAGCGUUCACGUCGCGGCCCCUGUCAGAUUCUGGUGAAUCUCCGAAUUCUCCUGU [G56C G65C] was 0.57; that for GGGGGCCACAGCAGAAGCGUUCACGUCGCGGCCCCUGUCAGAUUCUGGUGAAUCUCCGAAUUUUGCUGU [G56C C63U] was 0.709.
As for GGGGGCCACAGCAGAAGCGUUCACGUCGCGGCCCCUGUCAGAUUCUGGUGAAUCUCCGAAUUAUGCUGU [G56C C63A], the figure is 0.47; as for GGGGGCCACAGCAGAAGCGUUCACGUCGCGGCCCCUGUCAGAUUCUGGUGAAUCUCCGAAUUGUGCUGU [G56C C63G], 0.456.
On to GGGGGCCACAGCAGAAGCGUUCACGUCGCGGCCCCUGUCAGAUUCUGGUGAAUCGGCGAAUUCGGCUGU [U55G U64G], for which the self-cleavage came to 0.491.
GGGGGCCACAGCAGAAGCGUUCACGUCGCGGCCCCUGUCAGAUUCUGGUGAAUCUGGGAAUUUUGCUGU [C57G C63U]: the self-cleavage amounted to 0.356.
Consider GGGGGCCACAGCAGAAGCGUUCACGUCGCGGCCCCUGUCAGAUUCUGGUGAAUCUGGGAAUUGUGCUGU [C57G C63G], for which the self-cleavage is 0.285.
GGGGGCCACAGCAGAAGCGUUCACGUCGCGGCCCCUGUCAGAUUCUGGUGAAUCUACGCAUUCUGCUGU [G56A A59C]: the self-cleavage amounted to 0.432.
On to GGGGGCCACAGCAGAAGCGUUCACGUCGCGGCCCCUGUCAGAUUCUGGUGAAUCUGGGAAUUCUGCUGA [C57G U69A], for which the self-cleavage came to 0.381.
With GGGGGCCACAGCAGAAGCGUUCACGUCGCGGCCCCUGUCAGAUUCUGGUGAAUCUGGGAAUUCUGCUGG [C57G U69G], the self-cleavage came out at 0.473.
As to GGGGGCCACAGCAGAAGCGUUCACGUCGCGGCCCCUGUCAGAUUCUGGUGAAUCUUAGAAUUCUGCUGU [G56U C57A], the self-cleavage stood at 0.291.
For GGGGGCCACAGCAGAAGCGUUCACGUCGCGGCCCCUGUCAGAUUCUGGUGAAUCUUUGAAUUCUGCUGU [G56U C57U], the self-cleavage came to 0.322.
